Among the data in paper PMC7371201 are stoichiometry N, left:right ratio of NbDBCP within the 12-mL elution volume (densitometry; 1.37 for NbDBCP-T alone) and Kd values, retold here.

Data set [1] addresses NbDBCP-T (amino acids 1–414 of NbDBCP) (Nicotiana benthamiana). As to the kind of experiment: SEC; NbDBCP-T alone; approximate molecular weight by gel filtration chromatography. Background: In gel filtration, larger molecules generally elute earlier.
Data set [2] concerns the target NbGlk1(83–402) (N. benthamiana (from the prefix Nb)). The data set can be described thus: SEC; purified recombinant proteins run alone and after co-incubation; peak fractions visualised by SDS-PAGE.
For data set [3], the system named is NbGlk1(83-402) (Nicotiana benthamiana). The data set can be described thus: fluorescence anisotropy. As to conditions: DNA annealed in 150 mM NaCl, 15 mM Na citrate, binding buffer, pH and temperature not given in the material. In general terms: Fluorescence polarisation rises when a labelled molecule tumbles more slowly, as on binding a larger partner.

Broadly, the stoichiometry N is the number of molecules, sites or subunits per partner or assembly. As to “NbDBCP-T (amino acids 1–414 of NbDBCP) (domain or fragment)”, the stoichiometry N in data set [1] stood at 2. The left:right ratio of NbDBCP within the 12-mL elution volume (densitometry; 1.37 for NbDBCP-T alone) in data set [2] was found to be 1.6.

As a reminder, the Kd is the concentration at which binding is half-saturated. Low readings indicate a tighter complex, high ones a looser complex. For “CGGATATCCACGGATATCCACGGATATCCACGGATATCCACGGATATCCC (double strand) [FA-5/FA-6 concatenated GGATATCC GLK site duplex]”, the values for the Kd in data set [3] (NbGlk1 alone) and in data set [3] (with NbDBCP-T (1-414)) were 110 nM and 160 nM, respectively.
